Reference: US20020081623A1

Target: RANTES/eotaxin binding sites on guinea-pig eosinophils (guinea-pig)
Assay: binding of 0.1 nM 125I-RANTES to 4x10^5 guinea-pig eosinophils without competitor

Question: Which B0 does the source give for “human RANTES (from UniProt P13501 24-91) (ligand)” here?
Answer: The B0 was 14.4%.
